Experiment in all cases: ITC; peptide (1 mM) titrated into a cell with Hsp27 proteins (100 µM); SEC buffer (50 mM sodium phosphate, 100 mM NaCl); 25 °C; one-site binding model
What all share (conditions): both partners purified

Assay [1] has as its target T1, Hsp27 alpha-crystallin domain (ACD, residues Q80–S176) (human, UniProt P04792 80-176).
T1 construct: Human Hsp27 (HSPB1), alpha-crystallin domain, residues Q80–S176; Used 15N-labelled (observed in HSQC) and unlabelled; Vector was a gift of the Klevit laboratory; also called Hsp27 ACD

Assay [2] addresses T2, Hsp27 ΔNTD (residues 80–205) (human, UniProt P04792 80-205).
T2 construct: Human Hsp27 (HSPB1) without the N-terminal domain, residues 80–205; Heterogeneous mixture of 3–5 mers; source: E. coli BL21 (DE3), purified (Ni-NTA, size exclusion)

Assay [3] addresses T3, Hsp27 3D (pseudo-phosphorylation mutant S15D, S78D, S82D) (human, UniProt P04792 1-205, S15 replaced with aspartate | S78 replaced with aspartate | S82 replaced with …).
T3 construct: Human Hsp27 (HSPB1) in which three serines (S15, S78 and S82) are replaced with aspartate; Vector was a gift of the Dickey laboratory; Compared throughout with the full-length wild type, so probably the whole protein

As a reminder, the Kd is a measure of binding affinity in units of concentration. Read a high Kd as a looser complex.

T1 sequence (P04792 80-176): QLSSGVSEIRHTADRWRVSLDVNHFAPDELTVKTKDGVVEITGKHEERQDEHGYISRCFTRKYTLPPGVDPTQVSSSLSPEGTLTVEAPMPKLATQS
T3 sequence (P04792 whole entry S15D/S78D/S82D): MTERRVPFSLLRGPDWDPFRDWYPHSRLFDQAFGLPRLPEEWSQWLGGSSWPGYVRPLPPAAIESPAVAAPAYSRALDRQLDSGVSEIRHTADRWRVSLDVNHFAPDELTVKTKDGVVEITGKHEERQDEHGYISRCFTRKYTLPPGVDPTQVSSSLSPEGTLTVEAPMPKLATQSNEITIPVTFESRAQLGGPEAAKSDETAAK
T2 sequence (P04792 80-205, stated change not applied): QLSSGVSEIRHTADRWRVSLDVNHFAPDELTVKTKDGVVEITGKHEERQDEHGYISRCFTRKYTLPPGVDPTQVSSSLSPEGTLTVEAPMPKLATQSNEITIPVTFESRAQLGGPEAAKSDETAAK

B1: Hsp27 IPV H peptide with Val181 mutated to alanine (peptide)
chain: EITIPATHE
modifications: EITIPATHE. The paper numbers the peptide from E176, so printed Val181 (V of IPV) is UniProt V183. Peptide termini chemistry is not stated.
With B1, the Kd in assay [1] was more than 25 µM.

B2: Hsp27 IPV H peptide with Ile179 mutated to alanine (peptide)
chain: EITAPVTHE
modifications: EITAPVTHE. The paper numbers the peptide from E176, so printed Ile179 (I of IPV) is UniProt I181. Peptide termini chemistry is not stated.
As for B2, in assay [1], the Kd was more than 25 µM.

B3: Hsp27 IPV peptide (native 9-mer EITIPVTFE) (peptide)
peptide: EITIPVTFE
notes: Human Hsp27 (HSPB1), C-terminal IPV (IXI) motif, 9-mer; source: synthetic peptide, bought: Genescript
As for B3, in assay [1], the Kd was more than 25 µM.

B4: Hsp27 IPV H peptide with the second X residue (Pro) of IXIXV mutated to alanine (EITIAVTHE) (peptide)
peptide: EITIAVTHE
notes: Human Hsp27 (HSPB1) IPV peptide in the His-containing context with the proline of IPV mutated to alanine; source: synthetic peptide, bought: Genescript
B4 gave an equilibrium dissociation constant (Kd) in assay [1] of approximately 5 µM.

B5: Hsp27 IPV H peptide (EITIPVTHE) (peptide)
peptide: EITIPVTHE
notes: Human Hsp27 (HSPB1) IPV 9-mer with the penultimate phenylalanine swapped for histidine (the residue at this position in the motif of BAG3); also called His-containing IPV peptide; chimeric peptide; source: synthetic peptide, bought: Genescript
Turning to B5, the values for the Kd in assay [2], in assay [3] and in assay [1] were 11.4 µM, more than 50 µM and 11.5 µM, respectively.

(Values after paper PMC6212398 (Nature Communications, 2018).)
